From US20190127446A1

Legend:
[1] = target: soluble mouse Fcγ-receptor III (mouse) (UniProt P08508); assay: ratio of SPR KA values
[2] = target: soluble version of the extracellular domain of gp75; assay: SPR; soluble gp75 extracellular domain injected over immobilized antibody
[3] = target: soluble mouse Fcγ-receptor IIB (mouse) (UniProt P08101); assay: SPR
[4] = target: soluble mouse Fcγ-receptor III (mouse) (UniProt P08508); assay: SPR (Biacore), soluble receptor injected over immobilized antibody, 1:1 Langmuir
[5] = target: soluble mouse Fcγ-receptor IIB (mouse) (UniProt P08101); assay: as above
[6] = target: soluble mouse Fcγ-receptor IV (mouse); assay: ratio of SPR KA values
[7] = target: soluble mouse Fcγ-receptor IV (mouse); assay: SPR
[8] = target: soluble mouse Fcγ-receptor IV (mouse); assay: SPR (Biacore), soluble receptor injected over immobilized antibody, 1:1 Langmuir
[9] = target: soluble mouse Fcγ-receptor I (mouse) (UniProt P26151); assay: as above
Sequence of soluble mouse Fcγ-receptor I (mouse) (P26151 other isoform, or with tags, fused parts or gaps): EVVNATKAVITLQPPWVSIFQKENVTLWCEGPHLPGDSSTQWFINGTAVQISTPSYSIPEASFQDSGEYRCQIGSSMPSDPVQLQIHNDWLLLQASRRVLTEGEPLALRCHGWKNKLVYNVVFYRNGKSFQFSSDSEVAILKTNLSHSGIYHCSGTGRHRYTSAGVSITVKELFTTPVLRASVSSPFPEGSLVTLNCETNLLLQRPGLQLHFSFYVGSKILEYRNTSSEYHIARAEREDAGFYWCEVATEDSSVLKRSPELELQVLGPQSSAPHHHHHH

[10] = target: soluble human Fcγ-receptor IIIA (158F-allele) (human) (UniProt P08637); assay: ratio of SPR KA values
Sequence of soluble human Fcγ-receptor IIIA (158F-allele) (human) (P08637 17-208): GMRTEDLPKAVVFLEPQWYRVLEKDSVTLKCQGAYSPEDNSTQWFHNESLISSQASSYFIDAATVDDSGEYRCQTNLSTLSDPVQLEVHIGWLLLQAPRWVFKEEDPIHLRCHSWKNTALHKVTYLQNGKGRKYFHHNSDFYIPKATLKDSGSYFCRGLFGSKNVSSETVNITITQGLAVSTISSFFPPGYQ

[11] = target: soluble human Fcγ-receptor IIA (131H-allele) (human) (UniProt P12318); assay: ratio of SPR KA values
Sequence of soluble human Fcγ-receptor IIA (131H-allele) (human) (P12318 34-217): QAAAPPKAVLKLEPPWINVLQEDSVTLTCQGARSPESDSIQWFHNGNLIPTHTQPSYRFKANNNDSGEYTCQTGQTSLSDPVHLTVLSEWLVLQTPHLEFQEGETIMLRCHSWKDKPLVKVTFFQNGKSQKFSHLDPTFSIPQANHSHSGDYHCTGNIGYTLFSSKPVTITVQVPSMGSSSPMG

[12] = target: soluble human Fcγ-receptor IIB (human) (UniProt P31994); assay: SPR, soluble human Fcγ-receptor and human IgG isotype
Sequence of soluble human Fcγ-receptor IIB (human) (P31994 43-217): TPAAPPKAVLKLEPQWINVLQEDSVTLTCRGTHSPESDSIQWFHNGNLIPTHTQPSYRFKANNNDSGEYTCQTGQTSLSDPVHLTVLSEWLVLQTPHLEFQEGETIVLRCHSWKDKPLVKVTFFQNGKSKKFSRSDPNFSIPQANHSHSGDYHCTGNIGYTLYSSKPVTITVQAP

[13] = target: soluble human Fcγ-receptor IIIA (158F-allele) (human) (UniProt P08637); assay: as above
[14] = target: soluble human Fcγ-receptor IIA (131H-allele) (human) (UniProt P12318); assay: as above

Sequence of soluble mouse Fcγ-receptor III (mouse) (P08508 other isoform, or with tags, fused parts or gaps): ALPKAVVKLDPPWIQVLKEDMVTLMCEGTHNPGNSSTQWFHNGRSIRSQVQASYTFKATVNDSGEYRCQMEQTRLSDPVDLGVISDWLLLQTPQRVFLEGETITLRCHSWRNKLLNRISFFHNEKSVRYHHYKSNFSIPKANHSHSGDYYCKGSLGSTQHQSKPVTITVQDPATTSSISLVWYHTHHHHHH
Sequence of soluble mouse Fcγ-receptor IIB (mouse) (P08101 other isoform, or with tags, fused parts or gaps): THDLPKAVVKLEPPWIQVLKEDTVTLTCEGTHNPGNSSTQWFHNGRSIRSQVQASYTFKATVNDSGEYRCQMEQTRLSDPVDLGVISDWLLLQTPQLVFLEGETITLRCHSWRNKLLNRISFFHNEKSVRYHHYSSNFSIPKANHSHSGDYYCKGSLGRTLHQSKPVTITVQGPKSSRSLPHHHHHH

Substance	Ka [2] [M⁻¹]	Kd [2] [nM]	Ka [4] [M⁻¹]	Ka [5] [M⁻¹]	A/I (ratio of sFcγRIV to sFcγRIIB) [6]	Ka [8] [M⁻¹]	A/I IIIA/IIB (ratio of affinity to that for FcγRIIB) [10]	A/I IIA/IIB (ratio of affinity to that for FcγRIIB) [11]	Ka [12] [M⁻¹]	Ka [13] [M⁻¹]	Ka [14] [M⁻¹]	other results
TA99-IgG1 (fucose-containing) (antibody)	2.7e+09	0.38	310000	3.33e+06								A/I (ratio of affinity for sFcγRIII to that for FcγRIIB) [1]: 0.1; fold higher affinity than to FcγRIII [3]: 10 fold
TA99-IgG1 deficient in fucose (antibody)			510000	1.32e+06								A/I (ratio of affinity for sFcγRIII to that for FcγRIIB) [1]: 0.4
TA99-IgG2a (fucose-containing) (antibody)	1.6e+09	0.61	680000	420000	69	2.9e+07						fold higher affinity than to FcγRIIB [7]: 10 fold; Ka [9]: 1.6e+08 M⁻¹
TA99-IgG2b (fucose-containing) (antibody)	1.8e+09	0.57	640000	2.23e+06	7	1.7e+07						fold higher affinity than to FcγRIIB [7]: 10 fold
human IgG1 antibody isotype lacking fucose							76	3.1	78000	6e+06	240000	
human IgG2 antibody isotype							0.4	4.5	30000	14000	140000	
human IgG2 antibody isotype lacking fucose							5.7	5.3	26000	140000	130000	
human IgG4 antibody isotype								0.7	48000		35000	

Second part, led by results:

Ka [2] [M⁻¹]	Kd [2] [nM]	Ka [4] [M⁻¹]	Ka [5] [M⁻¹]	A/I (ratio of sFcγRIV to sFcγRIIB) [6]	Ka [8] [M⁻¹]	A/I IIIA/IIB (ratio of affinity to that for FcγRIIB) [10]	A/I IIA/IIB (ratio of affinity to that for FcγRIIB) [11]	Ka [12] [M⁻¹]	Ka [13] [M⁻¹]	Ka [14] [M⁻¹]	Substance	other results
		1.54e+06	3.34e+06	92	3.06e+08						TA99-IgG2a deficient in fucose (antibody)	Ka [9]: 1.8e+08 M⁻¹
		1.06e+06	1e+07	20	2.03e+08						TA99-IgG2b deficient in fucose (antibody)	
1.5e+09	0.66										TA99-IgG3 (antibody)	
						5.5	3.1	78000	430000	250000	human IgG1 antibody isotype	
